For assay [1], the target named is human PTK7 expressed on cells (cancer cell lines with endogenous PTK7; HEK293T-PTK7 over-expressing cells) (human) (UniProt Q13308). Nature of the assay: flow cytometry, HEL cells, 10 µg/ml Ab. (In flow cytometry, cells or beads pass a laser one at a time.)
Assay [2] shares this target. Nature of the assay: flow cytometry, TF1 cells, 10 µg/ml Ab.
Assay [3] shares this target. Put plainly: flow cytometry, EKVX cells, 10 µg/ml Ab.
Assay [4] shares this target. Put plainly: flow cytometry, H661 cells, 10 µg/ml Ab.
For assay [5] the target is unchanged. Nature of the assay: flow cytometry, K562 cells, 10 µg/ml Ab.
Assay [6] has the same target. Put plainly: flow cytometry, Raji cells, 10 µg/ml Ab.
Assay [7] has the same target. Nature of the assay: flow cytometry, BxPC3 cells, 10 µg/ml Ab.
For assay [8] the target is unchanged. Put plainly: flow cytometry, H1299 cells, 10 µg/ml Ab.
The target is the same in assay [9]. Nature of the assay: flow cytometry, H1975 cells, 10 µg/ml Ab.
Assay [10] shares this target. Nature of the assay: flow cytometry, H2110 cells, 10 µg/ml Ab.
Assay [11] shares this target. Nature of the assay: flow cytometry, HCC38 cells, 10 µg/ml Ab.
Assay [12] has the same target. Nature of the assay: flow cytometry, SKBR3 cells, 10 µg/ml Ab.
The target is the same in assay [13]. Nature of the assay: flow cytometry, HCC827 cells, 10 µg/ml Ab.
The target is the same in assay [14]. Put plainly: flow cytometry, HCT116 cells, 10 µg/ml Ab.
The target is the same in assay [15]. Nature of the assay: flow cytometry, Hs578T cells, 10 µg/ml Ab.
For assay [16] the target is unchanged. Put plainly: flow cytometry, HCC1937 cells, 10 µg/ml Ab.
For assay [17] the target is unchanged. Nature of the assay: flow cytometry, MiaPaca cells, 10 µg/ml Ab.
The target is the same in assay [18]. Nature of the assay: flow cytometry, MDAMB468 cells, 10 µg/ml Ab.
Assay [19] has the same target. Nature of the assay: flow cytometry, RPMI8226 cells, 10 µg/ml Ab.
Assay [20] shares this target. Put plainly: flow cytometry, ASPC1 cells (negligible PTK7 expression by immunoblot), 10 µg/ml Ab.

human PTK7 expressed on cells (cancer cell lines with endogenous PTK7; HEK293T-PTK7 over-expressing cells) (human), sequence (Q13308 31-1070 L93P limits assumed): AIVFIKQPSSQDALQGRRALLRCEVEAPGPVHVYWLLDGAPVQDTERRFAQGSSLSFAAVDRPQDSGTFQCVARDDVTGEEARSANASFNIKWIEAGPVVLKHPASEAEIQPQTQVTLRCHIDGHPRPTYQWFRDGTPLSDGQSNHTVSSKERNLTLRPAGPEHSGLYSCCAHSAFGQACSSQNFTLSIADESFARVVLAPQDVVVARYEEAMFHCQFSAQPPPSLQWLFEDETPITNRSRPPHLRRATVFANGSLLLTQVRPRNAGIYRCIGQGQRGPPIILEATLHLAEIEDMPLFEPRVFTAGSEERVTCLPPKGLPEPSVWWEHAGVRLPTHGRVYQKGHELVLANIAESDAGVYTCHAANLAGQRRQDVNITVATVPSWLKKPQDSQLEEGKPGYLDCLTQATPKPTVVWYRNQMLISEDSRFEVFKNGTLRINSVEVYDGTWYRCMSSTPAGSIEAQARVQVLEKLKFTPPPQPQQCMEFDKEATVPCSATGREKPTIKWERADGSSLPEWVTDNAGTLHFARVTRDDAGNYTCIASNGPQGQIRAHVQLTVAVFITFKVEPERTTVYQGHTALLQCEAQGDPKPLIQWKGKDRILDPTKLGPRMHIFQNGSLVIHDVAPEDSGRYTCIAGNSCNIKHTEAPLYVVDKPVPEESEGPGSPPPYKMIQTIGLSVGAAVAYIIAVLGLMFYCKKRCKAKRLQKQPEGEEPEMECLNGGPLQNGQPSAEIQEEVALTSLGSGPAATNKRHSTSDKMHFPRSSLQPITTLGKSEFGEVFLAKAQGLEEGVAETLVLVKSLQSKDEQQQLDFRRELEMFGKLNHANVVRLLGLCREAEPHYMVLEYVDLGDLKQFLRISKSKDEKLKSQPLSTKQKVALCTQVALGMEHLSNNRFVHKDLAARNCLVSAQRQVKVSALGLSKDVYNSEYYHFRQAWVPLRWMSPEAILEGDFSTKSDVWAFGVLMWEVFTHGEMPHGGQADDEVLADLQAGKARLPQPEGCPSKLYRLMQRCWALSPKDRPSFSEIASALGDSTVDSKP

Regarding “Negative Control Ab (Table 8) (antibody)”, the Mean Fluorescent Intensity was 15.7 in assay [1]; 5.9 in assay [2]; 3.1 in [3]; 3.8 in assay [4]; 54.7 in assay [5]; 20.3 in assay [6]. Further, the Mean Fluorescent Intensity in assay [7] was 4.6; in assay [8], 3; in assay [9] it was 4.8; in [10] it was 4.9; in [11], 7.2; in [12] it was 14.9. Moreover, the Mean Fluorescent Intensity in assay [13] was 5.8; in assay [14], 17.8; in [15] it was 2.7; in [16], 7.8; in assay [17], 3.5; in assay [18], 12. In addition, the figures for the Mean Fluorescent Intensity in assay [19] and in [20] were 8.3 and 2.6, respectively.

The values above are taken from patent US20180094075A1 (Pfizer, published 2018).
